# Reference: the supplement of paper PMC11908140
# B1: library; numbered along this chain (parent)
# chain: MRKPRAAVGSGHRKQAASQEGRQKHAKNNSQAKPSACDGLARQPEEVVLQASVSSYHLFRDVAEVTAFRGSLLSWYDQEKRDLPWRRRAEDEMDLDRRAYAVWVSEVMLQQTQVATVINYYTGWMQKWPTLQDLASASLEEVNQLWAGLGYYSRGRRLQEGARKVVEELGGHMPRTAETLQQLLPGVGRYTAGAIASIAFGQATGVVDGNVARVLCRVRAIGADPSSTLVSQQLWGLAQQLVDPARPGDFNQAAMELGATVCTPQRPLCSQCPVESLCRARQRVEQEQLLASGSLSGSPDVEECAPNTGQCHLCLPPSEPWDQTLGVVNFPRKASRKPPREESSATCVLEQPGALGAQILLVQRPNSGLLAGLWEFPSVTWEPSEQLQRKALLQELQRWAGPLPATHLRHLGEVVHTFSHIKLTYQVYGLALEGQTPVTTVPPGARWLTQEEFHTAAVSTAMKKVFRVYQGQQPGTCMGSKRSQVSSPCSRKKPRMGQQVLDNFFRSHISTDAHSLNSAAQ
# Variants of: B1
# Assay: 8OG:A repair function score (normalized; synonymous = 0, nonsense = -1) (normalized log-likelihood score); higher = more repair activity (WT-like)
# Conditions: with 8OG:A DNA repair reporter (GFP) in HEK-293 MUTYH KO cells
# Outline: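 Per-tile Rosace fitness scores were converted to a normalized repair function score anchored on synonymous and nonsense distributions. That scale puts synonymous medians at 0 and nonsense medians at -1. Variants with starting counts under 300 counts per million were discarded. Input came from sorting viable mCherry+ MUTYH knockout HEK-293 cells, carrying lentiviral MUTYH cDNA NNN codon-scan libraries in 10 pg/ml doxycycline and an 8OG:A GFP repair reporter, into GFP+ and GFP− bins at 72 h, three replicates per tile, followed by tile amplicon sequencing.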
# 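Also: cells sorted at 72 h after reporter transfection.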
row,Variant,8OG:A repair function score
1,MRKPRAAVGSGHRKQAASQEGRQKHAKNNSQAKPSACDGLARQPEEVVLQASVSSYHLFRDVAEVTAFRGSLLSWYDQEKRDLPWRRRAEDEMDLDRRAYAVWVSEVMLQQTQVATVINYYTGWMQKWPTLQDLASASLEEVNQLWAGLGYYSRGRRLQEGARKVVEELGGHMPRTAETLQQLLPGVGRYTAGAIASIAFGQATGVVDGNVARVLCRVRAIGADPSSTLVSQQYWGLAQQLVDPARPGDFNQAAMELGATVCTPQRPLCSQCPVESLCRARQRVEQEQLLASGSLSGSPDVEECAPNTGQCHLCLPPSEPWDQTLGVVNFPRKASRKPPREESSATCVLEQPGALGAQILLVQRPNSGLLAGLWEFPSVTWEPSEQLQRKALLQELQRWAGPLPATHLRHLGEVVHTFSHIKLTYQVYGLALEGQTPVTTVPPGARWLTQEEFHTAAVSTAMKKVFRVYQGQQPGTCMGSKRSQVSSPCSRKKPRMGQQVLDNFFRSHISTDAHSLNSAAQ [L234Y],-0.976
2,MRKPRAAVGSGHRKQAASQEGRQKHAKNNSQAKPSACDGLARQPEEVVLQASVSSYHLFRDVAEVTAFRGSLLSWYDQEKRDLPWRRRAEDEMDLDRRAYAVWVSEVMLQQTQVATVINYYTGWMQKWPTLQDLASASLEEVNQLWAGLGYYSRGRRLQEGARKVVEELGGHMPRTAETLQQLLPGVGRYTAGAIASIAFGQATGVVDGNVARVLCRVRAIGADPSSTLVSQQTWGLAQQLVDPARPGDFNQAAMELGATVCTPQRPLCSQCPVESLCRARQRVEQEQLLASGSLSGSPDVEECAPNTGQCHLCLPPSEPWDQTLGVVNFPRKASRKPPREESSATCVLEQPGALGAQILLVQRPNSGLLAGLWEFPSVTWEPSEQLQRKALLQELQRWAGPLPATHLRHLGEVVHTFSHIKLTYQVYGLALEGQTPVTTVPPGARWLTQEEFHTAAVSTAMKKVFRVYQGQQPGTCMGSKRSQVSSPCSRKKPRMGQQVLDNFFRSHISTDAHSLNSAAQ [L234T],-0.464
3,MRKPRAAVGSGHRKQAASQEGRQKHAKNNSQAKPSACDGLARQPEEVVLQASVSSYHLFRDVAEVTAFRGSLLSWYDQEKRDLPWRRRAEDEMDLDRRAYAVWVSEVMLQQTQVATVINYYTGWMQKWPTLQDLASASLEEVNQLWAGLGYYSRGRRLQEGARKVVEELGGHMPRTAETLQQLLPGVGRYTAGAIASIAFGQATGVVDGNVARVLCRVRAIGADPSSTLVSQQWWGLAQQLVDPARPGDFNQAAMELGATVCTPQRPLCSQCPVESLCRARQRVEQEQLLASGSLSGSPDVEECAPNTGQCHLCLPPSEPWDQTLGVVNFPRKASRKPPREESSATCVLEQPGALGAQILLVQRPNSGLLAGLWEFPSVTWEPSEQLQRKALLQELQRWAGPLPATHLRHLGEVVHTFSHIKLTYQVYGLALEGQTPVTTVPPGARWLTQEEFHTAAVSTAMKKVFRVYQGQQPGTCMGSKRSQVSSPCSRKKPRMGQQVLDNFFRSHISTDAHSLNSAAQ [L234W],-0.79
4,MRKPRAAVGSGHRKQAASQEGRQKHAKNNSQAKPSACDGLARQPEEVVLQASVSSYHLFRDVAEVTAFRGSLLSWYDQEKRDLPWRRRAEDEMDLDRRAYAVWVSEVMLQQTQVATVINYYTGWMQKWPTLQDLASASLEEVNQLWAGLGYYSRGRRLQEGARKVVEELGGHMPRTAETLQQLLPGVGRYTAGAIASIAFGQATGVVDGNVARVLCRVRAIGADPSSTLVSQQSWGLAQQLVDPARPGDFNQAAMELGATVCTPQRPLCSQCPVESLCRARQRVEQEQLLASGSLSGSPDVEECAPNTGQCHLCLPPSEPWDQTLGVVNFPRKASRKPPREESSATCVLEQPGALGAQILLVQRPNSGLLAGLWEFPSVTWEPSEQLQRKALLQELQRWAGPLPATHLRHLGEVVHTFSHIKLTYQVYGLALEGQTPVTTVPPGARWLTQEEFHTAAVSTAMKKVFRVYQGQQPGTCMGSKRSQVSSPCSRKKPRMGQQVLDNFFRSHISTDAHSLNSAAQ [L234S],-0.827
5,MRKPRAAVGSGHRKQAASQEGRQKHAKNNSQAKPSACDGLARQPEEVVLQASVSSYHLFRDVAEVTAFRGSLLSWYDQEKRDLPWRRRAEDEMDLDRRAYAVWVSEVMLQQTQVATVINYYTGWMQKWPTLQDLASASLEEVNQLWAGLGYYSRGRRLQEGARKVVEELGGHMPRTAETLQQLLPGVGRYTAGAIASIAFGQATGVVDGNVARVLCRVRAIGADPSSTLVSQQRWGLAQQLVDPARPGDFNQAAMELGATVCTPQRPLCSQCPVESLCRARQRVEQEQLLASGSLSGSPDVEECAPNTGQCHLCLPPSEPWDQTLGVVNFPRKASRKPPREESSATCVLEQPGALGAQILLVQRPNSGLLAGLWEFPSVTWEPSEQLQRKALLQELQRWAGPLPATHLRHLGEVVHTFSHIKLTYQVYGLALEGQTPVTTVPPGARWLTQEEFHTAAVSTAMKKVFRVYQGQQPGTCMGSKRSQVSSPCSRKKPRMGQQVLDNFFRSHISTDAHSLNSAAQ [L234R],-1.01
6,MRKPRAAVGSGHRKQAASQEGRQKHAKNNSQAKPSACDGLARQPEEVVLQASVSSYHLFRDVAEVTAFRGSLLSWYDQEKRDLPWRRRAEDEMDLDRRAYAVWVSEVMLQQTQVATVINYYTGWMQKWPTLQDLASASLEEVNQLWAGLGYYSRGRRLQEGARKVVEELGGHMPRTAETLQQLLPGVGRYTAGAIASIAFGQATGVVDGNVARVLCRVRAIGADPSSTLVSQQVWGLAQQLVDPARPGDFNQAAMELGATVCTPQRPLCSQCPVESLCRARQRVEQEQLLASGSLSGSPDVEECAPNTGQCHLCLPPSEPWDQTLGVVNFPRKASRKPPREESSATCVLEQPGALGAQILLVQRPNSGLLAGLWEFPSVTWEPSEQLQRKALLQELQRWAGPLPATHLRHLGEVVHTFSHIKLTYQVYGLALEGQTPVTTVPPGARWLTQEEFHTAAVSTAMKKVFRVYQGQQPGTCMGSKRSQVSSPCSRKKPRMGQQVLDNFFRSHISTDAHSLNSAAQ [L234V],-0.29
7,MRKPRAAVGSGHRKQAASQEGRQKHAKNNSQAKPSACDGLARQPEEVVLQASVSSYHLFRDVAEVTAFRGSLLSWYDQEKRDLPWRRRAEDEMDLDRRAYAVWVSEVMLQQTQVATVINYYTGWMQKWPTLQDLASASLEEVNQLWAGLGYYSRGRRLQEGARKVVEELGGHMPRTAETLQQLLPGVGRYTAGAIASIAFGQATGVVDGNVARVLCRVRAIGADPSSTLVSQQQWGLAQQLVDPARPGDFNQAAMELGATVCTPQRPLCSQCPVESLCRARQRVEQEQLLASGSLSGSPDVEECAPNTGQCHLCLPPSEPWDQTLGVVNFPRKASRKPPREESSATCVLEQPGALGAQILLVQRPNSGLLAGLWEFPSVTWEPSEQLQRKALLQELQRWAGPLPATHLRHLGEVVHTFSHIKLTYQVYGLALEGQTPVTTVPPGARWLTQEEFHTAAVSTAMKKVFRVYQGQQPGTCMGSKRSQVSSPCSRKKPRMGQQVLDNFFRSHISTDAHSLNSAAQ [L234Q],-0.724
8,MRKPRAAVGSGHRKQAASQEGRQKHAKNNSQAKPSACDGLARQPEEVVLQASVSSYHLFRDVAEVTAFRGSLLSWYDQEKRDLPWRRRAEDEMDLDRRAYAVWVSEVMLQQTQVATVINYYTGWMQKWPTLQDLASASLEEVNQLWAGLGYYSRGRRLQEGARKVVEELGGHMPRTAETLQQLLPGVGRYTAGAIASIAFGQATGVVDGNVARVLCRVRAIGADPSSTLVSQQLCGLAQQLVDPARPGDFNQAAMELGATVCTPQRPLCSQCPVESLCRARQRVEQEQLLASGSLSGSPDVEECAPNTGQCHLCLPPSEPWDQTLGVVNFPRKASRKPPREESSATCVLEQPGALGAQILLVQRPNSGLLAGLWEFPSVTWEPSEQLQRKALLQELQRWAGPLPATHLRHLGEVVHTFSHIKLTYQVYGLALEGQTPVTTVPPGARWLTQEEFHTAAVSTAMKKVFRVYQGQQPGTCMGSKRSQVSSPCSRKKPRMGQQVLDNFFRSHISTDAHSLNSAAQ [W235C],-0.509
9,MRKPRAAVGSGHRKQAASQEGRQKHAKNNSQAKPSACDGLARQPEEVVLQASVSSYHLFRDVAEVTAFRGSLLSWYDQEKRDLPWRRRAEDEMDLDRRAYAVWVSEVMLQQTQVATVINYYTGWMQKWPTLQDLASASLEEVNQLWAGLGYYSRGRRLQEGARKVVEELGGHMPRTAETLQQLLPGVGRYTAGAIASIAFGQATGVVDGNVARVLCRVRAIGADPSSTLVSQQLEGLAQQLVDPARPGDFNQAAMELGATVCTPQRPLCSQCPVESLCRARQRVEQEQLLASGSLSGSPDVEECAPNTGQCHLCLPPSEPWDQTLGVVNFPRKASRKPPREESSATCVLEQPGALGAQILLVQRPNSGLLAGLWEFPSVTWEPSEQLQRKALLQELQRWAGPLPATHLRHLGEVVHTFSHIKLTYQVYGLALEGQTPVTTVPPGARWLTQEEFHTAAVSTAMKKVFRVYQGQQPGTCMGSKRSQVSSPCSRKKPRMGQQVLDNFFRSHISTDAHSLNSAAQ [W235E],-0.204
10,MRKPRAAVGSGHRKQAASQEGRQKHAKNNSQAKPSACDGLARQPEEVVLQASVSSYHLFRDVAEVTAFRGSLLSWYDQEKRDLPWRRRAEDEMDLDRRAYAVWVSEVMLQQTQVATVINYYTGWMQKWPTLQDLASASLEEVNQLWAGLGYYSRGRRLQEGARKVVEELGGHMPRTAETLQQLLPGVGRYTAGAIASIAFGQATGVVDGNVARVLCRVRAIGADPSSTLVSQQLFGLAQQLVDPARPGDFNQAAMELGATVCTPQRPLCSQCPVESLCRARQRVEQEQLLASGSLSGSPDVEECAPNTGQCHLCLPPSEPWDQTLGVVNFPRKASRKPPREESSATCVLEQPGALGAQILLVQRPNSGLLAGLWEFPSVTWEPSEQLQRKALLQELQRWAGPLPATHLRHLGEVVHTFSHIKLTYQVYGLALEGQTPVTTVPPGARWLTQEEFHTAAVSTAMKKVFRVYQGQQPGTCMGSKRSQVSSPCSRKKPRMGQQVLDNFFRSHISTDAHSLNSAAQ [W235F],-0.292
11,MRKPRAAVGSGHRKQAASQEGRQKHAKNNSQAKPSACDGLARQPEEVVLQASVSSYHLFRDVAEVTAFRGSLLSWYDQEKRDLPWRRRAEDEMDLDRRAYAVWVSEVMLQQTQVATVINYYTGWMQKWPTLQDLASASLEEVNQLWAGLGYYSRGRRLQEGARKVVEELGGHMPRTAETLQQLLPGVGRYTAGAIASIAFGQATGVVDGNVARVLCRVRAIGADPSSTLVSQQLDGLAQQLVDPARPGDFNQAAMELGATVCTPQRPLCSQCPVESLCRARQRVEQEQLLASGSLSGSPDVEECAPNTGQCHLCLPPSEPWDQTLGVVNFPRKASRKPPREESSATCVLEQPGALGAQILLVQRPNSGLLAGLWEFPSVTWEPSEQLQRKALLQELQRWAGPLPATHLRHLGEVVHTFSHIKLTYQVYGLALEGQTPVTTVPPGARWLTQEEFHTAAVSTAMKKVFRVYQGQQPGTCMGSKRSQVSSPCSRKKPRMGQQVLDNFFRSHISTDAHSLNSAAQ [W235D],-0.452
12,MRKPRAAVGSGHRKQAASQEGRQKHAKNNSQAKPSACDGLARQPEEVVLQASVSSYHLFRDVAEVTAFRGSLLSWYDQEKRDLPWRRRAEDEMDLDRRAYAVWVSEVMLQQTQVATVINYYTGWMQKWPTLQDLASASLEEVNQLWAGLGYYSRGRRLQEGARKVVEELGGHMPRTAETLQQLLPGVGRYTAGAIASIAFGQATGVVDGNVARVLCRVRAIGADPSSTLVSQQLAGLAQQLVDPARPGDFNQAAMELGATVCTPQRPLCSQCPVESLCRARQRVEQEQLLASGSLSGSPDVEECAPNTGQCHLCLPPSEPWDQTLGVVNFPRKASRKPPREESSATCVLEQPGALGAQILLVQRPNSGLLAGLWEFPSVTWEPSEQLQRKALLQELQRWAGPLPATHLRHLGEVVHTFSHIKLTYQVYGLALEGQTPVTTVPPGARWLTQEEFHTAAVSTAMKKVFRVYQGQQPGTCMGSKRSQVSSPCSRKKPRMGQQVLDNFFRSHISTDAHSLNSAAQ [W235A],-0.284
